{
  "source": "patent US20150361450",
  "about": "“VECTOR FOR THERAPY OF MITOCHONDRIAL DISEASE” (UNIVERSITE DE STRASBOURG, published 2015)",
  "biological_target": "preKARS2 (precursor of human mitochondrial lysyl-tRNA synthetase) (Homo sapiens, UniProt Q15046-2 Q15046-2:1-625)",
  "sequence (Q15046 other isoform, or with tags, fused parts or gaps)": "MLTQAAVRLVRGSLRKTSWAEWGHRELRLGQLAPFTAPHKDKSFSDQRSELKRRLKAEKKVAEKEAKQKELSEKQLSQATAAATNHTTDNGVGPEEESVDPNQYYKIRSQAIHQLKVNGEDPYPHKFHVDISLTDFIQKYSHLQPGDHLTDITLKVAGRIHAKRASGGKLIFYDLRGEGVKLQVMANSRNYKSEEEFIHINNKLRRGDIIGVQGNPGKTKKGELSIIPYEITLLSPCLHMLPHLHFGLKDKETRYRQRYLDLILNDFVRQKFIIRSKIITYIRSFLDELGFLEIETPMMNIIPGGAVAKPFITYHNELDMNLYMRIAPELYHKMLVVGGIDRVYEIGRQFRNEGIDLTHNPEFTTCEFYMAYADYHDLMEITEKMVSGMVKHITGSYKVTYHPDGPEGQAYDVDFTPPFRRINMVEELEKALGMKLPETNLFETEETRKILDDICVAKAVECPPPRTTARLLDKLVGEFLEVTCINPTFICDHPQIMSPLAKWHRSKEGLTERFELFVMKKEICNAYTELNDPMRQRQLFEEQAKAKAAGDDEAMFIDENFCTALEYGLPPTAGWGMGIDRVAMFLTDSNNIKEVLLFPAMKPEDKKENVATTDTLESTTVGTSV",
  "assay": "EMSA; 10 mM MgCl2, 30 C",
  "conditions": "tags: C-terminal 6xHis, thrombin site and N-terminal 6xHis deleted, label: 5'-32P",
  "experimental": "Purified RNA was dephosphorylated with alkaline phosphatase (Boehringer Mannheim) and labeled at the 59-end with c-32P-ATP using T4 polynucleotide kinase (Promega). The labeled RNA was denatured at 100° C. and then slowly cooled down to the room temperature. For RNA binding assays, the appropriate amount of protein and labeled RNA were mixed in […] of the buffer containing 20 mM Tris-HCl pH 7.5, 150 mM NaCl, 10 mM MgCl2, 5 mM DTT, 10% glycerol, 0.1 mg/ml BSA and incubated at 30° C. for 15 min. The mixture was separated by native 8% PAGE in […] buffer (pH 8.3) and 5% glycerol, followed by Typhoon-Trio (GE Healthcare) scanning and quantification as described in.",
  "data": [
    {"binder": "GCGCAAUCGGUAGCGCCUCUUUACAGUGCUUAGUUCUC (ssRNA)", "note": "[HD RNA]", "values": [
      {"measurement": "binding result", "setting": "D-arm only, F-hairpin deleted", "result": "no binding"}
    ]},
    {"binder": "GGUCUUUACAGUGCUUACUUCUCGAGCCCCCUACAGGGCUCCA (ssRNA)", "note": "[HF RNA]", "values": [
      {"measurement": "binding result", "setting": "F-hairpin only, D-arm deleted", "result": "no binding"}
    ]}
  ]
}
